Results on three molecules are retold here after publication PMC5167418, “A Novel Functional Domain of Tab2 Involved in the Interaction with Estrogen Receptor Alpha in Breast Cancer Cells” (PLoS ONE, 2016).

In assay [1] the target is T1, Recombinant human ERα (human, UniProt P03372 1-595).
T1 construct: recombinant human ERα, bought; also called recombinant hERα; source: bought: Life Technologies
T1 sequence (looked up): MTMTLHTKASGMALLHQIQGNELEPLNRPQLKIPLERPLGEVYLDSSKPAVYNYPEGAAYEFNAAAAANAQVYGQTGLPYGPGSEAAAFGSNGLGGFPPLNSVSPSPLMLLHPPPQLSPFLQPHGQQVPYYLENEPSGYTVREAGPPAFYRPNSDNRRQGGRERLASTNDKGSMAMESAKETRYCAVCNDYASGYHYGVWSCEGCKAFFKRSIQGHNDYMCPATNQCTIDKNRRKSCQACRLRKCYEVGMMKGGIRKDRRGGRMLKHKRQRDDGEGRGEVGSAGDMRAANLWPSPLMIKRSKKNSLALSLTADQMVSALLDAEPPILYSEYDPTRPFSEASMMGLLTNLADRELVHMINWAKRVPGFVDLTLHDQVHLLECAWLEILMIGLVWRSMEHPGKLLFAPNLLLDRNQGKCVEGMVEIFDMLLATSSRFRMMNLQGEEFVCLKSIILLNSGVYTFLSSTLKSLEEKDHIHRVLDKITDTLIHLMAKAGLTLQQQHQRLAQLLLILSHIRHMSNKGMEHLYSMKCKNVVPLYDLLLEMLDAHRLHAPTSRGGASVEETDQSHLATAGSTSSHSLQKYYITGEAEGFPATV

Assay [2] has as its target T1, Recombinant human ERα. Description: pull-down; competition screening: MBP-Tab2(406–531) and recombinant hERα (1 nM) with or without in vitro translated fragments of Tab2(406–531); the pair that is blocked. The following applies: both partners purified.
Assay [3] has as its target T1, Recombinant human ERα. The assay is described as follows: pull-down; competition: 10 μg MBP-Tab2(406–531) preincubated 1 h at 4°C with synthetic Tab2 peptides (10 μM each, or Tab2-pept3 100 nM to 10 μM), then recombinant hERα (1 nM) 1.5 h at 4°C, amylose resin, immunoblot. The following applies: both partners purified. A general note: In western blotting, separated proteins are transferred to a membrane and probed.

As for “TAT-Tab2-pept3 (from UniProt Q9NYJ8 480-496) (peptide)”, the proliferation (bromo-deoxyuridine incorporation) of MCF7 TamR cells in 1 μM 4OHT, peptide 1 to 100 μM, 24 h; the peptide is meant to interfere with Tab2/ERα in assay [1] was 50 to 70 µM.

B1: MBP-Tab2(406–531) (domain or fragment, human, UniProt Q9NYJ8 406-531, looked up)
chain: TLFISTNSGASAASRNMSGQVSMGPAFIHHHPPKSRAIGNNSATSPRVVVTQPNTKYTFKITVSPNKPPAVSPGVVSPTFELTNLLNHPDHYVETENIQHLTDPTLAHVDRISETRKLSMGSDDAA
notes: human Tab2, aa 406–531 (central domain); also called MBP-406-531Tab2; 406-531Tab2; source: bacteria, purified MBP fusion (pMALc2)
With B1, the binding result in assay [2] was “binds”.

B2: Tab2-pept3 (peptide, UniProt Q9NYJ8 480-496, looked up)
peptide: VVSPTFELTNLLNHPDH
notes: 17-aa synthetic peptide mimicking aa; 480–496 of human Tab2, a portion of Fragment 4; includes the LTNLL motif; also called Tab2 mimic peptide; SRID peptide; source: synthetic peptide (microwave-assisted synthesis, RP-HPLC purified)
B2: the binding result in assay [3] is given as “binds”.
